For one assay, the target named is Moesin FERM domain (UniProt P26038).
Assay [1] has as its target T1, Merlin FERM domain (Merlin-FERM, residues 1-320) (human, UniProt P35240 1-320).
T1 sequence (looked up): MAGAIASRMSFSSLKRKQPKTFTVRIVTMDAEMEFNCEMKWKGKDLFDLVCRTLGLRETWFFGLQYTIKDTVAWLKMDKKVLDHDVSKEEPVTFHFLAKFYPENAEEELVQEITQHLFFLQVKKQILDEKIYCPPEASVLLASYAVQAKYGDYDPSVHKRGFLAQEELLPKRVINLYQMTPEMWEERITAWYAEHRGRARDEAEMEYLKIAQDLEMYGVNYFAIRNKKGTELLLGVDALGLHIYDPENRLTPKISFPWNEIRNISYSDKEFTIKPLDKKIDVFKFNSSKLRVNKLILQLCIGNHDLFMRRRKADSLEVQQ
The experiment in a line: crystal structure.

Assay [2] addresses entire C-terminal half of Merlin (human). The experiment in a line: SEC. A general note: Size exclusion chromatography separates by hydrodynamic size, large species first.
Assay [3] deals with T1, Merlin FERM domain (Merlin-FERM, …).
The target is the same in assay [4]. The experiment in a line: ITC.
The target in a further assay is T2, S518D-Merlin (human, UniProt P35240 20-595, S518D).
T2 sequence (looked up): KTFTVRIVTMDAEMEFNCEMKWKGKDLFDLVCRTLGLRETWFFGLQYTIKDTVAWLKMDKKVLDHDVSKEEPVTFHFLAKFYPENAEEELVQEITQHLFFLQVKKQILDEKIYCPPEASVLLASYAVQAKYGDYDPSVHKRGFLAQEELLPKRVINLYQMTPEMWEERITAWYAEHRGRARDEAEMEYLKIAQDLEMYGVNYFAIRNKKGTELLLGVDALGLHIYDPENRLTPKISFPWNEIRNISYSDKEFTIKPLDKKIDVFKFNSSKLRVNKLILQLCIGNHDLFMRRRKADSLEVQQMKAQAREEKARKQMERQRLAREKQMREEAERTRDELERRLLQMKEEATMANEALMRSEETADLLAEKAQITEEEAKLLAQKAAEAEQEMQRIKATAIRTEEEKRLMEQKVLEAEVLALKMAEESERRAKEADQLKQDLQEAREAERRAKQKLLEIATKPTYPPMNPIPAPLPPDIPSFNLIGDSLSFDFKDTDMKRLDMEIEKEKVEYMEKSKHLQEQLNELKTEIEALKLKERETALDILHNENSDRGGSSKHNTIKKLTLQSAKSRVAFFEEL
The experiment in a line: ITC. (Isothermal titration calorimetry measures the heat released or taken up as one component is titrated into another.)

The next assay addresses T3, S518A-Merlin (human, UniProt P35240 20-595, S518A).
T3 sequence (looked up): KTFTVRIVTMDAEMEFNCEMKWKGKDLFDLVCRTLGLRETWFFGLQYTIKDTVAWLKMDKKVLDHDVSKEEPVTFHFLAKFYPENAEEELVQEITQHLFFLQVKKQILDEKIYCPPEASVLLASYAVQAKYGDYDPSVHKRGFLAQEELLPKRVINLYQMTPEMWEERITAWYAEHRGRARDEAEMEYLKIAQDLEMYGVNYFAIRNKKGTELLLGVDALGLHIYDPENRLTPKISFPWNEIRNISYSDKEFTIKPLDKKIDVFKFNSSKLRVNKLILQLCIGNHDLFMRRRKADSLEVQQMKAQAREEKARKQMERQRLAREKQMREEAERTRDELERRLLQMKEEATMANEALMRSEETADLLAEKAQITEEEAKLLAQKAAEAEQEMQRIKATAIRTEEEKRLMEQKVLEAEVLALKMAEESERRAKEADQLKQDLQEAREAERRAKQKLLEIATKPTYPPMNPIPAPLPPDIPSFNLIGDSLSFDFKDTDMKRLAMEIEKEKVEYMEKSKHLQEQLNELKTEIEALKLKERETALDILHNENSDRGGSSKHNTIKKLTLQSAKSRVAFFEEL
The experiment in a line: pull-down.

“And” between values parts separate entries of the source, which are not always exact repeats. Equal entries are not always repeated. Where two headings read alike, the source gives them in different places.

The source of these data is PMC4493278 (Cell Research, 2015).

What is called Kd is the concentration at which binding is half-saturated. The low end stands for higher affinity, the high end for lower affinity. As a reminder, the stoichiometry N is a count of units in the complex or per binding partner.

Moesin FERM domain, sequence (P26038 2-295): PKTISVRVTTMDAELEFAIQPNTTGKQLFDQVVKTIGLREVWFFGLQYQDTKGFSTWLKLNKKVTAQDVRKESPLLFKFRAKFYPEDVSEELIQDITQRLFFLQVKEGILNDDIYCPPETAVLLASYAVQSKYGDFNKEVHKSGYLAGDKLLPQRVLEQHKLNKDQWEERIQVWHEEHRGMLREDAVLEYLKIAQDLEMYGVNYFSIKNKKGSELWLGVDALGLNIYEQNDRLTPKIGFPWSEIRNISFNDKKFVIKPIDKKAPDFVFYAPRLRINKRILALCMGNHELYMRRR

Moesin tail domain (domain or fragment) returned a Kd in the assay with Moesin FERM domain of 0.016 µM.

B1: Lats2 FERM-binding domain (Lats2-FBD, residues 68-99) (domain or fragment, human, UniProt Q9NRM7 68-99, looked up)
chain: PKFGPYQKALREIRYSLLPFANESGTSAAAEV
As to B1, the binding result in assay [1] is listed as “binds”.

B2: elongated α-helix-rich region of AMOT (residues 404-728 of AMOT-p130) (domain or fragment)
chain: ADPFAMVSRAQQMVEILSDENRNLRQELDGCYEKVARLQKVETEIQRVSEAYENLVKSSSKREALEKAMRNKLEGEIRRMHDFNRDLRDRLETANKQLAEKEYEGSEDTRKTISQLFAKHKENQREKEKLEAELATARSTNEDQRRHIEIRDQALSNAQAKVVKLEEELKKKQVYVDKVEKMQQALVQLQAACEKREQLEHRLRTRLERELESLRIQQRQGNSQPTNASEYNAAALMELLREKEERILALEADMTKWEQKYLEENVMRHFALDAAATVAAQRDTTVISHSPNTSYDTALEARIQKEEEEILMANKRCLDMEGRIK
Molecule B2 showed a stoichiometry N in assay [2] of 1.

B3: Merlin-CTD-S518D (domain or fragment, human, UniProt P35240 507-595, looked up)
chain: FDFKDTDMKRLDMEIEKEKVEYMEKSKHLQEQLNELKTEIEALKLKERETALDILHNENSDRGGSSKHNTIKKLTLQSAKSRVAFFEEL
Consider B3, for which the dissociation constant Kd in assay [3] is about 4 µM.

B4: Merlin C-terminal tail domain (Merlin-CTD, residues 507-595) (domain or fragment, human, UniProt P35240 507-595, looked up)
chain: FDFKDTDMKRLSMEIEKEKVEYMEKSKHLQEQLNELKTEIEALKLKERETALDILHNENSDRGGSSKHNTIKKLTLQSAKSRVAFFEEL
Consider B4, for which the Kd in assay [3] is ~3 µM and ~4 µM.

B5: Merlin-CTD bearing S518D/A585W substitutions (domain or fragment, human, UniProt P35240 507-595, looked up)
chain: FDFKDTDMKRLDMEIEKEKVEYMEKSKHLQEQLNELKTEIEALKLKERETALDILHNENSDRGGSSKHNTIKKLTLQSWKSRVAFFEEL
On to B5, for which, in assay [1], the binding result is recorded as “binds”.

B6: N-terminus of Lats1 (Lats1-NT, residues 1-153) (domain or fragment, mouse, UniProt Q8BYR2 1-153, looked up)
chain: MKRGEKPEGYRQMRPKTFPASNYPGSSRQMLQEIRESLRNLSKPSDASKAEHNLNKMSTEDPRQVRNPPKFGTHHKALQEIRNSLLPFANETSSSRSPSEVNPQMFQDLQAAGFDEDMVIQALQKTNNRSIEAAVEFISKMSYQDPRREQMSA
For B6, the dissociation constant Kd in assay [4] is about 1.4 µM.

B7: EBP50 C-terminal tail (EBP50-CT, residues 320-358) (domain or fragment, human, UniProt O14745 320-358, looked up)
chain: ILDFNISLAMAKERAHQKRSSKRAPQMDWSKKNELFSNL
In assay [4], B7 came in with an equilibrium dissociation constant (Kd) of about 0.08 µM. In the assay with S518D-Merlin, the binding result is “binds”.

B8: Lats1 FERM-binding domain (Lats1-FBD, residues 69-100) (domain or fragment, mouse, UniProt Q8BYR2 69-100, looked up)
chain: PKFGTHHKALQEIRNSLLPFANETSSSRSPSE
Regarding B8, the binding result in assay [1] was “binds”.

B9: GST-tagged Lats1-FBD (domain or fragment, mouse, UniProt Q8BYR2 69-100, looked up)
chain: PKFGTHHKALQEIRNSLLPFANETSSSRSPSE
As to B9, the binding result in the assay with S518A-Merlin is “binds”.
